The chains are these.
B1: AtGH3-13: GH3 protein, accession CAB86642 (protein, listed as Arabidopsis thaliana)
chain: MLPKFDLTDPKASLSLLEDVTTNVTQIQDSILEAVLSRNAHTEYLKGFLNGQVDKQTFKKNVPIVTYEDIKPYINRIANGEASDLICDRPISLLVMSSGTTAGIQNLIPLTTEDGEQRIMFGSLYRSLLYKYVEGIREGKSLTFYFVNPERETASGILIRTMITCILKSVNKTNSSLWDRLQISPHEISTCEDTTQSMYCQLLCGLLQRDNVARLGAPFASVFIRVIKYLEGHWQELCSNIRTGRLSDWITDPQCVSGISKFLTAPNPDLASLIEQECSKTSWEAIVKRLWPKAKCVEAVVTGSMAQYIPLLEFYGGGLPLISSWYGSSECFMGVNVNPLCKPSDVSYTIIPSMAYFEFLEVKKDQQEAGLDPIENHVVVDLVDVKIGHDYEPVVTTFSGLYRYRVGDLLRVTGFYNNSPHFRFVGRQKVVLSLHMANTYEEDLLKAVTNAKLLLEPHDLMLMEFTSRVDSSSFVGHYVLYWELGSKVKDAKLEPNRDVMEECCFTVEKYLDPLYRQERRKDKNIGPLEIKVVKPGAFDELMNFFLSRGSSVSQYKTPRSVKTEEAVKILEANVVSEFLSQETPPWG
B2: VvGH3-8: GH3 protein, accession XP_002271002 (protein, listed as Vitis vinifera)
chain: MADGEILKKLEDSTKDAVAVQLQTLHTILQRNGRSSYLQRYGASLDTGSFREAVPLSCYDDYADYIDRMADGGGGDDDGDRPLLSVDPLVCFFNSSGTSSMKPKLIPYFDSPPSKAASHIAHQGSVAILRRLFPPRQSINKVLWFLYAGNVTYTKGGFKAMAASAFPLQSNNKNPSPFLSTSASPREVILGSNVEQQMYCHILCGLRNLDFLDGIRAPYAVGLIRAFALLEFKWEQICEDLKCGFPSMEITDIAMRDSVTEVLAGPQLDLSKRIRTICEGKNWGGIVGKLWPNVRYIKCVCTGSMEQYYQKLKYYAGEIPVLGGDYFASECCVGINLDILQPPQLTRFVLLPTAAYFEFLPFTLDEEEIGDDAQETVDFSGVEVGKMYEIVVTTYRGFFRYRLGDVVRVVGFHNTSPEVEFVMRAPKTPAEILTERDLMTAMGNFQLVLRTVKMPDVTEFASFFDLDSIPKQLKIFLEVAGVLQDEKLQELGSVLRRNFSSLEDGLGGVYKLRKGRGEVGPLLVSIVKPGSFNRLLQMATENGAPASQYKPPKIIRNLEIVHFMEGSALLTVSFDSSD
B3: AtGH3-14: GH3 protein, accession CAB87143 (protein, listed as Arabidopsis thaliana)
chain: MLPKFDPTDQKACLSLLEDVTTNVKQIQDSVLEAILSRNAHTEYLSGFLNGQADKKSFKKNVPVVTYEDIKPYIDRIANGEPSDLICDRPISVLLTSSGTSGGVPKLIPLTTEELEQRISFASLYRPLLYKYIEGIRERKSFMLYFVTRESETASGILVRTMITCVLKSVTPANSFIWDQSQISPHAITTCSDTTQSMYCQLLCGLLQRDNVGRLGAPFASSFLKIIKFLEDHWPEFCSNIRTGCLSDWITDPQCVSGIGKFLTAPNPELASLIEQECSQTSWEAIVKRLWPKAKCIEAIVTGTMAQYNPLLEFYSGGLPVISTFYGSSECFFGLNLNPLSKPNEVSYTIIPCMAYFEFLEVEKDYESGHDPAENPVVVDLVDVKIGHDYEPVVTTFAGLYRYRLGDVLRVTGFYNNAPQFHFVGRQKVVLSIDMDKTYDEDLLKAVTNASLLLEPHDLMLMDFTSRVDSSSYPGHYVLYWELGRKVKDAKLELDQNVLEECCFTIEESLDAVYRKGRKNDKNIGPLEIKVVKPGAFDKLMNFFLSRGSSVSQYKTPRSVTNEEALKILEANVVSEFLSQKTPSWELHELHSSR
B4: OsGH3-7: GH3 protein, accession Q654M1 (protein, listed as Oryza sativa)
chain: MALLLPEFDPADVRAGRDLIHRLTADAAGIQRGVLREILSRNSGTEYLRRFLGGAAGDDDDVRDAFKRRVPVSGYEDVKPYVDRVASGGEPSSALLCSDPITCLSRSSGTSGGQQKLLPSTAEELDRKVFFYAVQALVRNMSLHTDHGEDDDGGGGEGMYLMFAFHGDRTLSGLPIQSALTTYYHSRQFQECDIGGFDKCTSPLEAILCPYGEQSMYCQLLCGLLHRCRVDRVGASFAAGLVRGIKFLENHWEEMCFNIRSGQLSDWITHTPLRDAVTGQYLQGSNPALADEIASECARKPWDGIVRRLWPRARYIRTIVTGSMSQYIPILEVYGGGLPLVSPIYASTECAAGINLRPLDPPSHVSYALLPNIAYFEFLEVMDENGEKVQGTTRLDDNLGEVKVVDLVDVKVGRCYELIVTTFAGLYRYRVGDLFTVSGFYNATPLFHFSGRHDVILSIDYEKISEEDLLNAIAETDKFHLRPLGYMLVGSTAYADISTLPGHYILFWELTNTCDSNVAIDIDQTAMEKCCLAVEDHFDEMYRKIRHRGSISALEIRILSHGAFDALMDFFVSRGTSASQYKTPTAIRSKEAMMVLEERVVGRFFSQATPSCRSAEFERR
B5: OsGH3-11: GH3 protein, accession P0C0M3 (protein, listed as Oryza sativa)
chain: MDDHNLDYKGSGALEELEMLTVNAKEAQELILTKILERNQATEYLSKFMNGSTNISAFKRHVPVVTYDKVHPYILRIATGEESSILCGEYILELLRSSGTSRGEPRLMPSILKDLDRRTYLYSLIMPIMNKYISGLGEGKAMYLLFVKAETLTDSGIPVRSVLTSYYKSPHFLHRKHDLYNNYTSPDEVILCPDSQQSMYCQLLCGLVERQHVLRIGAVFASAFLRSISFLEQHWRDLVNDIRIGQLNSSITSPACRLAMLNFLALPNPELADQVEAICSCGSWKGILGRLWPNVKYIEAVLTGTMAQYIPMLEFYGGGAIPFVCTMYASSESYFGVNLSPLCSPADVSYTILPNMAYFEFIPLEDGLRLTDHEEVIENDKLVSLVDVKVGCYYELVVTTFSGLYRYRVGDVLQVTGFYNRAPQFKFICRRNVILSIDSDKTNEEDLHNSVTTAKKILENQNYLLLEYTSYTDISTVPGHYVLFWEIKSTHDERPAPLDAQLLESCCAAVEESLDYVYRRCRAHDRSIGPLEIRLVEAGAFDALMDLLVSHGSSINQYKTPRCIESSLALKLLNSKVIACFFSPQDPECGM
B6: PtGH3-9: GH3 protein, accession EEE81977 (protein, listed as Populus trichocarpa)
chain: MDGKKLEYKGWVALKEIERLTEKADEVQETILKAILMQNGETEYLSKYMKGSKDVDEFKFHVPVITYKDVCPYIQRIATGEDSSLVTGHPVTEMLCSSGTSAGEPKLMPSIAEDLDRRTFVYNLIMPIMNQYIFGLDEGKAMFLYFIKAEMSTPCGLPARTVLTSYYKSKHFKCRTRDAFNDFTSPDQAILCKDSNQSMYCQLLSGLVHRHQVLRLGAVFASAFLRAISFLERNWGRLCNDIRSGDLDPTITDPECRSCMSMLLTSPNPSLADEIEDICSNTSWKGILCHLWPRAKYIEAVVTGSMAQYIPSLEYYSEGKLPLVCTMYASSECYFGVNLKPLCDPADVAFTLLPNMCYFEFIHLGENGTWLVNKDEEGEVPNDKLVNLVNVRLGSYYELVVTTFAGLYRYRIGDVLRVTGFHNKAPQFQFICRRNVVLSIDNDKTNEEDLHKSITAAKKLLEPYDALLVEYTSYADTSSVPGHYVLYWEILHDASFPDSSAQLDVKLLQECCISVEEELDYVYRRCRAHDKSVGPLEIRVVESGTFEALMDFFIGQGASINQYKTPRSIKSNAALKLLNSHVKASAFSPRDPAWIP
B7: PtGH3-14: GH3 protein, accession EEE99364 (protein, listed as Populus trichocarpa)
chain: MTYDELDRNLEDLTKNAAHHQLQTLHSILQHQASVGYLQPYLSACHAPVDAATFRSQVPLSSYDDYFHLINQLANGDIDHHQPLLSADPLLCFFYSSGTSTMKPKLIPYFDSALSKAASYNAHQGSAAIFRNLVPPRPEVNKILWFLYADDAPTTRGGFKVMAASTYPLQGNKSRSNWSQTLSCISPREVVFGSNIKQQMYCHLLCALRSFDIIDGIRAAYAAGLIRAFSLLESKWEKLCDDLESGFPSLEIGDAAMKESVVEFLGGPQVDLSRRIREICAESNWGGILSKLWPNVRYVKSVTTGSMKQYYSKLKYYAGDVMILGGDYFASECCLGINLDIQQPPESTRFVMLPTTAYFEFLPFDLNESSVVGEETVDFSGVKVGKMYEVAVTTYRGLYRYRLGDIVRVVGFHNSSPLVEFVMRAPKTGYEIITEKDLMSAMESFQHSMAAEVVEFASFSDFELSPKRLKVFIEFREGCDFLQEEKLQGSVEALQRCCSSLENGLGEIYKVQKDRGEIGPLLVSVVRSGSFDGILQMAIKNGAPAGQYKPPKIIRNREIVDFMEESAVLTISLDSFHG

Seven molecules from patent publication US20150351390A1, “COMPOSITIONS AND METHODS FOR AUXIN-ANALOG CONJUGATION” (PIONEER HI-BRED INTERNATIONAL, INC., priority 2012, published 2015) can be followed below.

The first data set can be described thus: LC-MS assay of GH3 conjugation of 2,4-D with Asp or Glu. The format is biochemical. The note with it: conjugation of 2,4-D with Asp by recombinant GH3 protein; 2,4-D-Asp product by LC-MS; 5 mM 2,4-D substrate. The procedure, abridged:
(§1)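 Amino acid conjugates of IAA, 2,4-D or dicamba measured by LC-MS against conjugate standards, with kinetic parameters fitted to Michaelis-Menten initial velocities. Reactions: 5 mM each of auxin, ATP and Asp or Glu with 44 to 164 μg/mL purified His-tagged GH3 (E. coli-expressed), pH 8.0 Tris, 5 mM MgCl2, 1 mM DTT, 30 °C for 3 h.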
B1: the “kcat (hrs−1) 2,4-D-Asp” value turned out to be 0.000 h⁻¹.

For B2, the “kcat (hrs−1) 2,4-D-Asp” value was found to be 0.000 h⁻¹.

On to B3, for which the “kcat (hrs−1) 2,4-D-Asp” value amounted to 0.122 h⁻¹.

Regarding B4, the “kcat (hrs−1) 2,4-D-Asp” value worked out at 0.000 h⁻¹.

B5: the “kcat (hrs−1) 2,4-D-Asp” value worked out at 0.000 h⁻¹.

In the case of B6, the “kcat (hrs−1) 2,4-D-Asp” value turned out to be 0.065 h⁻¹.

Take B7: the “kcat (hrs−1) 2,4-D-Asp” value stood at 0.000 h⁻¹.

Staying with this data set, now noted: conjugation of 2,4-D with Glu by recombinant GH3 protein; 2,4-D-Glu product by LC-MS; 5 mM 2,4-D substrate.
In the case of B1, the “kcat (hrs−1) 2,4-D-Glu” value was found to be 0.018 h⁻¹.

B2: the “kcat (hrs−1) 2,4-D-Glu” value worked out at 0.028 h⁻¹.

Consider B3, for which the “kcat (hrs−1) 2,4-D-Glu” value was 0.233 h⁻¹.

For B4, the “kcat (hrs−1) 2,4-D-Glu” value amounted to 0.028 h⁻¹.

For the molecule B5, the “kcat (hrs−1) 2,4-D-Glu” value was 0.043 h⁻¹.

Regarding B6, the “kcat (hrs−1) 2,4-D-Glu” value came out at 0.305 h⁻¹.

In the case of B7, the “kcat (hrs−1) 2,4-D-Glu” value was 0.015 h⁻¹.

The same data set, now with this note: result in words.
For the molecule B1, the “2,4-D conjugation activity with Asp or Glu” value (“2,4-D conjugation activity” for short) is recorded as 2,4-D conjugases.

With B2, the “2,4-D conjugation activity” value was 2,4-D conjugases.

B3: the “2,4-D conjugation activity” value was 2,4-D conjugases.

Turning to B4, the “2,4-D conjugation activity” value was 2,4-D conjugases.

Take B5: the “2,4-D conjugation activity” value is 2,4-D conjugases.

For B7, the “2,4-D conjugation activity” value is recorded as 2,4-D conjugases.

A further data set in a line: LC-MS assay of GH3 conjugation of IAA with Asp or Glu. Format: biochemical. As to conditions: conjugation of IAA with Asp by recombinant GH3 protein; IAA-Asp product by LC-MS. A digest of the protocol:
as §1
Regarding B1, the “kcat (hrs−1) IAA-Asp” value turned out to be 0.000 h⁻¹.

Turning to B2, the “kcat (hrs−1) IAA-Asp” value is 0.000 h⁻¹.

Take B3: the “kcat (hrs−1) IAA-Asp” value was 0.000 h⁻¹.

For the molecule B4, the “kcat (hrs−1) IAA-Asp” value was found to be 0.000 h⁻¹.

On to B5, for which the “kcat (hrs−1) IAA-Asp” value turned out to be 0.000 h⁻¹.

B6: the “kcat (hrs−1) IAA-Asp” value is 4.487 h⁻¹.

For the molecule B7, the “kcat (hrs−1) IAA-Asp” value is 0.000 h⁻¹.

The same data set, now with this note: conjugation of IAA with Glu by recombinant GH3 protein; IAA-Glu product by LC-MS.
On to B1, for which the “kcat (hrs−1) IAA-Glu” value was 0.000 h⁻¹.

In the case of B2, the “kcat (hrs−1) IAA-Glu” value is 0.000 h⁻¹.

As for B3, the “kcat (hrs−1) IAA-Glu” value came to 0.000 h⁻¹.

For B4, the “kcat (hrs−1) IAA-Glu” value was found to be 0.000 h⁻¹.

With B5, the “kcat (hrs−1) IAA-Glu” value was determined as 0.000 h⁻¹.

Take B6: the “kcat (hrs−1) IAA-Glu” value turned out to be 21.980 h⁻¹.

Consider B7, for which the “kcat (hrs−1) IAA-Glu” value was 0.000 h⁻¹.

The data set is the same for the next values; noted with them: result in words.
As for B1, the “IAA conjugation activity with Asp or Glu” value is “IAA-inactive”.

On to B2, for which the “IAA conjugation activity with Asp or Glu” value was “IAA-inactive”.

With B3, the “IAA conjugation activity with Asp or Glu” value is “IAA-inactive”.

B4: the “IAA conjugation activity with Asp or Glu” value is “IAA-inactive”.

Take B5: the “IAA conjugation activity with Asp or Glu” value is “IAA-inactive”.

For the molecule B7, the “IAA conjugation activity with Asp or Glu” value is “IAA-inactive”.
